In patent publication US20250327081, “TDP-43-BINDING SINGLE-STRANDED APTAMERS AND USES THEREOF” (FONDAZIONE ISTITUTO ITALIANO DI TECNOLOGIA, published 2025):

How the values were obtained:
[1] = biological target: T1, TDP-43 construct (RRM1-2) (UniProt Q13148 Q13148:104-262); test: BLI; 10 mM K phosphate pH 7.2, 150 mM KCl, 0.01% Tween20, 25 C; conditions: label: 3'-biotin
[2] = biological target: T1, TDP-43 construct (RRM1-2); test: BLI
[3] = biological target: T1, TDP-43 construct (RRM1-2); test: BLI; 10 mM K phosphate pH 7.2, 150 mM KCl, 0.01% Tween20, 25 C; about 90 nM in Example 7; conditions: label: 3'-biotin (BLI)
Description: In this study, the inventors calculated the predicted interaction propensities between the RNA aptamers of Table 1 and TDP-43 and validated the predicted interaction propensities by comparing them with the experimentally measured Kd (dissociation constant) values. To this end, the Kd between each of Apt-1, Apt-2, Apt-3, Apt-11, Apt-12 or Apt-13 and the two RNA recognition motifs of TDP-43 (RRM1-2) was determined by means of biolayer interferometry, a label-free technology to study biomolecular interactions. Importantly, RRM1-2 represents the minimal region necessary for RNA-binding with high affinity (Lukavsky et al., 2013) purifiable as a monomer under near-to-physiological conditions and in suitable quantities (Zacco et al., 2018).
(§1) The binding assays were performed in 10 mM potassium phosphate buffer (pH 7.2) with 150 mM KCl and 0.01% Tween20. Streptavidin-coated biosensors were loaded with 1 μg/ml RNA aptamer modified with biotin on the 3′end and exposed to increasing protein concentrations varying from 20 nM to 20 μM, according to the strength of the binding. Kd values were estimated by fitting the response intensity (shift in the wavelength upon binding) as a function of the protein concentration, at the steady state. The assay was repeated at least 3 times, each time in triplicate. The reported binding curves are examples of the output of one experiment.

[4] = biological target: T1, TDP-43 construct (RRM1-2); test: BLI; 10 mM K phosphate pH 7.2, 150 mM KCl, 0.01% Tween20, 25 C
Description: as §1
The inventors verified whether Apt-14 preserves the ability to bind tightly to TDP-43. Bio-layer interferometry was used to determine the dissociation constant of the interaction between Apt-14 and the TDP-43 construct. This experiment was carried out with the same buffer and the same conditions employed for the experiment carried out with Apt-1.

T1 sequence (Q13148 104-262, one chain of several): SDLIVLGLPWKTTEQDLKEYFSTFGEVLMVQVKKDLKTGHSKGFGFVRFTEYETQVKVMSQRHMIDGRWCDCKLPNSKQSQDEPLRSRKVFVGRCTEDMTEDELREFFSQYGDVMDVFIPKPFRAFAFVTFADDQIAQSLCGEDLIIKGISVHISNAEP

Binder	Kd [1] [nM]	also measured
GCGGGGCCCG (ssRNA) [Apt-6]	1600	
GCUGGGGUGGGGCGGAUCGGUGUUG (ssRNA) [Apt-1 (25 nt)]		Kd [2]: ~750 nM
GGGGUGGGGC (ssRNA) [Apt-4]	1300	
CGGUGUUGCU (ssRNA) [Apt-1]		Kd [3]: 100 nM
CGCUGUGGUC (ssRNA) [Apt-3]	650	
CGAGGCCGGG (ssRNA) [Apt-5]	1500	
CGGTGTTGCT (ssDNA) [Apt-14 (DNA version of Apt-1)]		Kd [4]: ~76 nM
GUGGUCCCCG (ssRNA) [Apt-2]	750	
